Laboratory results: publication PMC6993569

Key:
[1] = target: BBLF1-Flag (Epstein-Barr virus)
[2] = target: SDE-BBLF1-Flag (Epstein-Barr virus)

B1: BGLF2-GFP (natural protein)
chain: MASAANSSREQLRKFLNKECLWVLSDASTPQMKVYTATTAVSAVYVPQIAGPPKTYMNVTLIVLKPKKKPTYVTVYINGTLATVARPEVLFTKAVQGPHSLTLMYFGVFSDAVGEAVPVEIRGNPVVTCTDLTTAHVFTTSTAVKTVEELQDITPSEIIPLGRGGAWYAEGALYMFFVNMDMLMCCPNMPTFPSLTHFINLLTRCDNGECVTCYGAGAHVNILRGWTEDDSPGTSGTCPCLLPCTALNNDYVPITGHRALLGLMFKPEDAPFVVGLRFNPPKMHPDMSRVLQGVLANGKEVPCTAQPWTLLRFSDLYSRAMLYNCQVLKRQVLHSY
[1]
  recruitment of BGLF2-GFP to the TGN (colocalisation with TGN46) in cotransfected A7 cells, confocal microscopy (% of transfected cells): 70
[2]
  recruitment of BGLF2-GFP to the TGN (colocalisation with TGN46) in cotransfected A7 cells, confocal microscopy (% of transfected cells): 70
